Patent US20070212365A1

Legend:
[1] = molecular target: synthetic peptide … (antigen from mpf00920 polypeptide); experiment: ELISA on the antigen; pre-immune serum at 2000-fold dilution
[2] = molecular target: synthetic peptide … (antigen from mpf00920 polypeptide); experiment: ELISA on the antigen; pre-immune serum at 4000-fold dilution
[3] = molecular target: synthetic peptide … (antigen from mpf00920 polypeptide); experiment: ELISA on the antigen; pre-immune serum at 8000-fold dilution
[4] = molecular target: synthetic peptide … (antigen from mpf00920 polypeptide); experiment: ELISA on the antigen; pre-immune serum at 16000-fold dilution
[5] = molecular target: synthetic peptide … (antigen from mpf00920 polypeptide); experiment: ELISA on the antigen; pre-immune serum at 1000-fold dilution

absorbance (490 nm) (absorbance (490 nm)) [1]: 0.101
absorbance (490 nm) (absorbance (490 nm)) [2]: 0.089
absorbance (490 nm) (absorbance (490 nm)) [3]: 0.084
absorbance (490 nm) (absorbance (490 nm)) [4]: 0.076
absorbance (490 nm) (absorbance (490 nm)) [5]: 0.171
Substance: control serum (rabbit serum without immunization)
